For twelve molecules, IC50 results are on record in patent US20100310640A1.

What all share (details): remark: other sources report otherwise
The target of assay [1] is T1, HLA-DR DRB1*0101 (human).
T1 chain 1: not shown
T1 chain 2: not shown
The experiment in a line: radioligand inhibition, purified HLA-DR.

The target of assay [2] is T2, HLA-DR DRB1*0301 (human).
T2 chain 1: not shown
T2 chain 2: not shown
Description: radioligand inhibition, purified HLA-DR.

For assay [3], the target named is T3, HLA-DR DRB1*0401 (human).
T3 chain 1: not shown
T3 chain 2: not shown
Description: radioligand inhibition, purified HLA-DR.

Assay [4] addresses T4, HLA-DR DRB1*0701 (human).
T4 chain 1: not shown
T4 chain 2: not shown
Description: radioligand inhibition, purified HLA-DR.

The target of assay [5] is T5, HLA-DR DRB1*1201 (human).
T5 chain 1: not shown
T5 chain 2: not shown
The experiment in a line: radioligand inhibition, purified HLA-DR.

Assay [6] has as its target T6, HLA-DR DRB1*1302 (human).
T6 chain 1: not shown
T6 chain 2: not shown
The experiment in a line: radioligand inhibition, purified HLA-DR.

The target in assay [7] is T7, HLA-DR DRB4*0101 (human).
T7 chain 1: not shown
T7 chain 2: not shown
Description: radioligand inhibition, purified HLA-DR.

The target of assay [8] is T8, HLA-DR DRB1*0404 (human).
T8 chain 1: not shown
T8 chain 2: not shown
Description: radioligand inhibition, purified HLA-DR.

In assay [9] the target is T9, HLA-DR DRB1*1101 (human).
T9 chain 1: not shown
T9 chain 2: not shown
Description: radioligand inhibition, purified HLA-DR.

In assay [10] the target is T10, HLA-DR DRB1*0405 (human).
T10 chain 1: not shown
T10 chain 2: not shown
The experiment in a line: radioligand inhibition, purified HLA-DR.

For assay [11], the target named is T11, HLA-DR DRB5*0101 (human).
T11 chain 1: not shown
T11 chain 2: not shown
Description: radioligand inhibition, purified HLA-DR.

Assay [12] deals with T1, HLA-DR DRB1*0101 (human). The experiment in a line: radiolabeled-peptide inhibition, purified HLA-DR.
The target in assay [13] is T3, HLA-DR DRB1*0401 (human). Description: radiolabeled-peptide inhibition, purified HLA-DR.
In assay [14] the target is T10, HLA-DR DRB1*0405 (human). Description: radiolabeled-peptide inhibition, purified HLA-DR.
Assay [15] addresses T6, HLA-DR DRB1*1302 (human). Description: radiolabeled-peptide inhibition, purified HLA-DR.
The target in assay [16] is T7, HLA-DR DRB4*0101 (human). Description: radiolabeled-peptide inhibition, purified HLA-DR.
The target in assay [17] is T11, HLA-DR DRB5*0101 (human). The experiment in a line: radiolabeled-peptide inhibition, purified HLA-DR.
The target in assay [18] is T8, HLA-DR DRB1*0404 (human). The experiment in a line: radiolabeled-peptide inhibition, purified HLA-DR.
The target of assay [19] is T4, HLA-DR DRB1*0701 (human). The experiment in a line: radiolabeled-peptide inhibition, purified HLA-DR.

For APTIRGDPECHLFYN [Peptide 9019.0022], the IC50 (as a rule, the concentration at which inhibition is half-maximal) in [1] is 4030 nM; in [2], 31 nM; in assay [3], 1640 nM; in assay [4], 16800 nM; in assay [5] it was 16900 nM; in assay [6], 1670 nM. In assay [7], the IC50 was determined as 2510 nM.
Regarding LQRYSEDPTVPLPSE [Peptide 9019.0099], the IC50 in assay [2] stood at 18 nM; in assay [8] it was 13100 nM; in [9], 94 nM; in assay [6] it was 280 nM.
In the case of ERGPLEHLYSLHIPN [Peptide 9019.0190], the IC50 in [1] was 7.7 nM; in assay [8] it was 29 nM; in [10] it was 110 nM; in assay [4], 18 nM; in [11] it was 4000 nM.
In the case of EALLESSLRQAQQNM [Cyclin D1.252], the concentration for half-maximal inhibition (IC50) in [1] came out at 8210 nM; in assay [2], 151 nM; in [3], 605 nM; in assay [8] it was 1020 nM; in assay [9] it was 756 nM; in assay [6] it was 4760 nM. Further, the IC50 in [7] came out at 4030 nM.
ELAVFREKVTEQHRQ [Peptide 9019.0018]: the half-maximal inhibitory concentration (IC50) in assay [2] worked out at 8620 nM.
For the molecule HRDLAARNVLVKSPN [9019.0085], the IC50 in assay [12] amounted to 158 nM; in [13], 401 nM; in [14], 11200 nM; in [15], 116 nM.
On to AYVMAGVGSPYVSRL [9019.0077], for which the IC50 turned out to be 92 nM in assay [12]; 596 nM in assay [14]; 402 nM in assay [15]; 5060 nM in assay [16]; 308 nM in assay [17].
Regarding FRELVSEFSRMARDP [Peptide 9019.0096], the IC50 in assay [3] was found to be 22 nM; in assay [8], 51 nM; in assay [4] it was 5060 nM; in assay [9] it was 381 nM; in [11] it was 380 nM.
As to KLCIYTDNSIRPEEL [Cyclin D1.123], the half-inhibitory concentration (IC50) in assay [1] stood at 1920 nM; in [2], 64 nM; in [3], 90 nM; in assay [4] it was 1100 nM; in [6], 879 nM; in assay [7] it was 33 nM. In [11], this molecule yielded a half-inhibitory concentration (IC50) of 4620 nM.
Consider CMQIAKGMSYLEDVR [9019.0083], for which the concentration for half-maximal inhibition (IC50) is 2650 nM in assay [13]; 867 nM in [18]; 116 nM in assay [19]; 2230 nM in assay [15]; 3000 nM in [16]; 130 nM in assay [17].
Take MAGVGSPYVSRLLGI [9019.0078]: the IC50 in [19] amounted to 352 nM.
In the case of VCGIQNSVSANRSDP [CEA.570 peptide 9012.0135], the IC50 in [1] turned out to be 44 nM; in [8], 29 nM; in assay [10], 1550 nM; in assay [6], 921 nM; in assay [11], 36 nM.
